Measured values taken from PMC9482650, “Quantitative fragmentomics allow affinity mapping of interactomes” (Nature Communications, 2022).

Columns and labels:
Test in all cases: holdup assay
Design in all cases: key: below the threshold = too weak to quantify, mostly under pKd 3.1 to 4
[1] = biological target: T1, ARHGAP21, Q5T5U3
T1 sequence (Q5T5U3 45-169, limits assumed, looked up): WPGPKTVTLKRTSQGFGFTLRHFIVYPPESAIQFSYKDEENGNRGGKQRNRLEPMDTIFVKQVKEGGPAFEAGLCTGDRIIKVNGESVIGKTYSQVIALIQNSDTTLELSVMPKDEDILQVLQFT

[2] = biological target: T2, ARHGEF11, O15085
T2 sequence (O15085 42-136, limits assumed, looked up): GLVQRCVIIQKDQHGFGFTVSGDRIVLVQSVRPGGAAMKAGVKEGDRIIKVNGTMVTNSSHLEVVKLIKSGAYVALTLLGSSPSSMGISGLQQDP

[3] = biological target: T3, DFNB31_3, Q9P202
T3 sequence (Q9P202 811-907, limits assumed, looked up): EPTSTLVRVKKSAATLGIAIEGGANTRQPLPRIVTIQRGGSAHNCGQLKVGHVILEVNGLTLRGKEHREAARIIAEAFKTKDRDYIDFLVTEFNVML

[4] = biological target: DLG4_2, P78352
Chain of DLG4_2, P78352 (P78352 155-259): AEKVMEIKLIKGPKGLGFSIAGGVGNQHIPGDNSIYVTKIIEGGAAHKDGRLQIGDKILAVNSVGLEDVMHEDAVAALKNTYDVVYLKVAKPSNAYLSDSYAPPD

[5] = biological target: FRMPD2_1, Q68DX3
Chain of FRMPD2_1, Q68DX3 (Q68DX3 770-861): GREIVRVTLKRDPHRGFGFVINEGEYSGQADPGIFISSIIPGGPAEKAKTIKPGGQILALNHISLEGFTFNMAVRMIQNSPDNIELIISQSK

[6] = biological target: T4, GRIP1_2, Q9Y3R0
T4 sequence (Q9Y3R0 145-248, limits assumed, looked up): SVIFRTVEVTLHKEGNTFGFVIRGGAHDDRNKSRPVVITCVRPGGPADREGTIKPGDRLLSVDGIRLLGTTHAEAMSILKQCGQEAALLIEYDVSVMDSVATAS

[7] = biological target: T5, GRIP1_7, Q9Y3R0
T5 sequence (Q9Y3R0 999-1096, limits assumed, looked up): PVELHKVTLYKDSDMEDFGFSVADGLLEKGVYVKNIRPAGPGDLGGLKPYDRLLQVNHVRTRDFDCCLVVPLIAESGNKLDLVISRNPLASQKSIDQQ

[8] = biological target: GRIP2_5, Q9C0E4
Chain of GRIP2_5, Q9C0E4 (Q9C0E4 544-642): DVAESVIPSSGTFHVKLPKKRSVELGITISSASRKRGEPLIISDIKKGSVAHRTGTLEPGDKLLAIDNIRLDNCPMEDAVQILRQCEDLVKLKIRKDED

[9] = biological target: IL16_3, Q14005
Chain of IL16_3, Q14005 (Q14005 1107-1207): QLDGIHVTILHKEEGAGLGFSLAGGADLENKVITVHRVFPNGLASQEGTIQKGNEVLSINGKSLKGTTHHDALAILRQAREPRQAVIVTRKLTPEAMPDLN

[10] = biological target: IL16_4, Q14005
Chain of IL16_4, Q14005 (Q14005 1229-1329): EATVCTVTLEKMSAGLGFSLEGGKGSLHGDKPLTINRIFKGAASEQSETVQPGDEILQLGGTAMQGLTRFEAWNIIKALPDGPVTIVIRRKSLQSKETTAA

[11] = biological target: Inadl_3, Q8NI35
Chain of Inadl_3, Q8NI35 (Q8NI35 359-469): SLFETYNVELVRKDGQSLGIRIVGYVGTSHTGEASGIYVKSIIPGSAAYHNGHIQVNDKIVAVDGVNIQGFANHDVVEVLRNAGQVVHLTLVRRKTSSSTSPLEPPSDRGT

[12] = biological target: LAP2, Q96RT1
Chain of LAP2, Q96RT1 (Q96RT1 other isoform, or with tags, fused parts or gaps): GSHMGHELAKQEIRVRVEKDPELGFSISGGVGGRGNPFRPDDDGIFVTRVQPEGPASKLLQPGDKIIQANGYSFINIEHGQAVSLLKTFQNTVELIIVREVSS

[13] = biological target: LNX1_3, Q8TBB1
Chain of LNX1_3, Q8TBB1 (Q8TBB1 500-596): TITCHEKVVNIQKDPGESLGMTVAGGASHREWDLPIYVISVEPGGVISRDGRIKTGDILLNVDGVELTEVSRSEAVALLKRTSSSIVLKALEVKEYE

[14] = biological target: T6, LNX2_3, Q8N448
T6 sequence (Q8N448 463-564, limits assumed, looked up): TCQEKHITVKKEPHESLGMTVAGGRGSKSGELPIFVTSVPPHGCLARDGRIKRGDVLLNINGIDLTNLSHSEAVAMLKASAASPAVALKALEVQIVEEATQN

[15] = biological target: MAGI2_3, Q86UL8
Chain of MAGI2_3, Q86UL8 (Q86UL8 600-682): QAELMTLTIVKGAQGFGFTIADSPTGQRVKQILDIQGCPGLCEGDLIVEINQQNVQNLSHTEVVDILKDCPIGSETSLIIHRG

[16] = biological target: MAGI2_6, Q86UL8
Chain of MAGI2_6, Q86UL8 (Q86UL8 1141-1229): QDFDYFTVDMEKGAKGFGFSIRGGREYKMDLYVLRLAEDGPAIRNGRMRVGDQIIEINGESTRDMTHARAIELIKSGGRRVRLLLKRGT

[17] = biological target: MAST1, Q9Y2H9
Chain of MAST1, Q9Y2H9 (Q9Y2H9 962-1065): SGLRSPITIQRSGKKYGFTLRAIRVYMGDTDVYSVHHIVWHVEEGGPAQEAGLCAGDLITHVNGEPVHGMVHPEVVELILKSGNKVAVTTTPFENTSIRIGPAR

[18] = biological target: T7, MPDZ_10, O75970
T7 sequence (O75970 1624-1722, limits assumed, looked up): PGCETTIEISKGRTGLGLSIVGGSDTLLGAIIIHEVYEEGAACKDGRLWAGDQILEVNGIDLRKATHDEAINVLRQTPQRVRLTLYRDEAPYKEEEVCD

[19] = biological target: T8, MPDZ_12, O75970
T8 sequence (O75970 1857-1958, limits assumed, looked up): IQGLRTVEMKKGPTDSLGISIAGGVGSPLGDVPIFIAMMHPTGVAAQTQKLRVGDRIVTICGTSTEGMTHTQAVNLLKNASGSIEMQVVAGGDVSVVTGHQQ

[20] = biological target: T9, NHERF3_4, Q5T2W1
T9 sequence (Q5T2W1 373-468, limits assumed, looked up): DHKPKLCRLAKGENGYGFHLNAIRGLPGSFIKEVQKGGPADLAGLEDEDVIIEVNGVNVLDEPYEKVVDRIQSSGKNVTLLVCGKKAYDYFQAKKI

[21] = biological target: T10, PARD3B_1, Q8TEW8
T10 sequence (Q8TEW8 196-299, limits assumed, looked up): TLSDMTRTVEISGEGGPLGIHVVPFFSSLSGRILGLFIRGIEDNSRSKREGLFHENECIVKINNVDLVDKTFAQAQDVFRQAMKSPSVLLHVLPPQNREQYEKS

[22] = biological target: T11, PCLO, Q9Y6V0
T11 sequence (Q9Y6V0 4491-4600, limits assumed, looked up): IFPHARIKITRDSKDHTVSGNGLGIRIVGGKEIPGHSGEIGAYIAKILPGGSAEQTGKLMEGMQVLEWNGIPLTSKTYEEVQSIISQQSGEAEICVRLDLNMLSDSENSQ

[23] = biological target: T12, SIPA1L2, Q9P2F8
T12 sequence (Q9P2F8 945-1036, limits assumed, looked up): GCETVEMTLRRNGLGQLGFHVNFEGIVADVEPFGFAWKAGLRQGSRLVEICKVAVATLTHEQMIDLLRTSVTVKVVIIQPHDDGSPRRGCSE

[24] = biological target: T13, SNTB1, Q13884
T13 sequence (Q13884 107-205, limits assumed, looked up): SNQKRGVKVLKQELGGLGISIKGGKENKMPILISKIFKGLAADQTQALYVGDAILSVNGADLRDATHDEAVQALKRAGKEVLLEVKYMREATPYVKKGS

[25] = plain residues with an end cap or a label only (N-terminal biotin on a linker: ado-ado)
[26] = plain residues with an end cap or a label only (N-terminal biotin on a linker: (peg)3)

Q: What does the source list for PPGKHLVTEV [KCNA7, Q96RP8]?
A: pKd [1, 25]: below the threshold; pKd [2, 25]: 5.2; pKd [3, 25]: 4.01; pKd [4, 25]: 5.11; pKd [5, 25]: below the threshold; pKd [6, 25]: below the threshold; pKd [7, 25]: below the threshold; pKd [8, 25]: below the threshold; pKd [9, 25]: below the threshold; pKd [10, 25]: below the threshold; pKd [11, 25]: 3.7; pKd [12, 25]: 4.39; pKd [13, 25]: below the threshold; pKd [14, 25]: below the threshold; pKd [15, 25]: 4.22; pKd [16, 25]: 4.51; pKd [17, 25]: 4.58; pKd [18, 25]: below the threshold; pKd [19, 25]: 3.88; pKd [20, 25]: below the threshold; pKd [21, 25]: below the threshold; pKd [22, 25]: below the threshold; pKd [23, 25]: below the threshold; pKd [24, 25]: 4.32

Q: With DDASLPVSDV [PLEKHA1, Q9HB21] as the binder, how does the pKd [1, 25] read?
A: 3.5

Q: What about the pKd [2, 25] of the same binder?
A: 4.22

Q: And the pKd [3, 25]?
A: 4.54

Q: And the pKd [4, 25]?
A: below the threshold

Q: And the pKd [5, 25]?
A: below the threshold

Q: What about the pKd [6, 25] of the same binder?
A: below the threshold

Q: What about the pKd [7, 25] of the same binder?
A: below the threshold

Q: And the pKd [8, 25]?
A: below the threshold

Q: What about the pKd [9, 25] of the same binder?
A: below the threshold

Q: What about the pKd [10, 25] of the same binder?
A: below the threshold

Q: And the pKd [11, 25]?
A: below the threshold

Q: And the pKd [12, 25]?
A: 3.73

Q: What about the pKd [13, 25] of the same binder?
A: below the threshold

Q: What about the pKd [14, 25] of the same binder?
A: below the threshold

Q: What about the pKd [15, 25] of the same binder?
A: below the threshold

Q: And the pKd [16, 25]?
A: 5.09

Q: And the pKd [17, 25]?
A: 3.96

Q: And the pKd [18, 25]?
A: 3.91

Q: What about the pKd [19, 25] of the same binder?
A: below the threshold

Q: What about the pKd [20, 25] of the same binder?
A: below the threshold

Q: And the pKd [21, 25]?
A: below the threshold

Q: What about the pKd [22, 25] of the same binder?
A: below the threshold

Q: What about the pKd [23, 25] of the same binder?
A: below the threshold

Q: What about the pKd [24, 25] of the same binder?
A: 4.59

Q: What does the source list for QQSMSSADSTQA [SARS-Cov2-N, P0DTC9]?
A: pKd [1, 26]: below the threshold; pKd [2, 26]: below the threshold; pKd [3, 26]: below the threshold; pKd [4, 26]: below the threshold; pKd [5, 26]: below the threshold; pKd [6, 26]: below the threshold; pKd [7, 26]: below the threshold; pKd [8, 26]: below the threshold; pKd [9, 26]: below the threshold; pKd [10, 26]: below the threshold; pKd [11, 26]: below the threshold; pKd [12, 26]: below the threshold; pKd [13, 26]: below the threshold; pKd [14, 26]: 3.88; pKd [15, 26]: below the threshold; pKd [16, 26]: below the threshold; pKd [17, 26]: below the threshold; pKd [18, 26]: below the threshold; pKd [19, 26]: below the threshold; pKd [20, 26]: below the threshold; pKd [21, 26]: below the threshold; pKd [22, 26]: below the threshold; pKd [23, 26]: below the threshold; pKd [24, 26]: below the threshold

Q: For SPDRDRESIV [SCN5A, Q14524], which pKd [1, 25] is on record?
A: 3.91

Q: And the pKd [2, 25]?
A: 3.51

Q: And the pKd [3, 25]?
A: 4.06

Q: What about the pKd [4, 25] of the same binder?
A: 4.73

Q: What about the pKd [5, 25] of the same binder?
A: below the threshold

Q: And the pKd [6, 25]?
A: below the threshold

Q: And the pKd [7, 25]?
A: below the threshold

Q: And the pKd [8, 25]?
A: below the threshold

Q: And the pKd [9, 25]?
A: below the threshold

Q: What about the pKd [10, 25] of the same binder?
A: below the threshold

Q: And the pKd [11, 25]?
A: 3.56

Q: And the pKd [12, 25]?
A: below the threshold

Q: What about the pKd [13, 25] of the same binder?
A: below the threshold

Q: And the pKd [14, 25]?
A: below the threshold

Q: What about the pKd [15, 25] of the same binder?
A: 4.02

Q: And the pKd [16, 25]?
A: 3.67

Q: What about the pKd [17, 25] of the same binder?
A: 3.83

Q: And the pKd [18, 25]?
A: 3.55

Q: What about the pKd [19, 25] of the same binder?
A: below the threshold

Q: And the pKd [20, 25]?
A: below the threshold

Q: What about the pKd [21, 25] of the same binder?
A: below the threshold

Q: What about the pKd [22, 25] of the same binder?
A: below the threshold

Q: And the pKd [23, 25]?
A: below the threshold

Q: And the pKd [24, 25]?
A: 5.66

Q: For ARESQKVSHV [FAM110B, Q8TC76], which pKd [1, 25] is on record?
A: 3.92

Q: And the pKd [2, 25]?
A: 4.19

Q: What about the pKd [3, 25] of the same binder?
A: below the threshold

Q: What about the pKd [4, 25] of the same binder?
A: 4.53

Q: And the pKd [5, 25]?
A: below the threshold

Q: And the pKd [6, 25]?
A: below the threshold

Q: What about the pKd [7, 25] of the same binder?
A: below the threshold

Q: And the pKd [8, 25]?
A: below the threshold

Q: And the pKd [9, 25]?
A: below the threshold

Q: What about the pKd [10, 25] of the same binder?
A: below the threshold

Q: What about the pKd [11, 25] of the same binder?
A: below the threshold

Q: What about the pKd [12, 25] of the same binder?
A: 3.66

Q: What about the pKd [13, 25] of the same binder?
A: below the threshold

Q: And the pKd [14, 25]?
A: below the threshold

Q: And the pKd [15, 25]?
A: 4.25

Q: What about the pKd [16, 25] of the same binder?
A: 4.43

Q: And the pKd [17, 25]?
A: 4.13

Q: And the pKd [18, 25]?
A: 4.08

Q: And the pKd [19, 25]?
A: below the threshold

Q: And the pKd [20, 25]?
A: below the threshold

Q: And the pKd [21, 25]?
A: below the threshold

Q: What about the pKd [22, 25] of the same binder?
A: below the threshold

Q: And the pKd [23, 25]?
A: below the threshold

Q: And the pKd [24, 25]?
A: 4.52

Q: ELSATVTTDC [TRIP6, Q15654] was tested. Which pKd [1, 25] did it give?
A: 4.27

Q: And the pKd [2, 25]?
A: 4.61

Q: And the pKd [3, 25]?
A: 3.62

Q: And the pKd [4, 25]?
A: 3.91

Q: What about the pKd [5, 25] of the same binder?
A: below the threshold

Q: What about the pKd [6, 25] of the same binder?
A: below the threshold

Q: What about the pKd [7, 25] of the same binder?
A: below the threshold

Q: And the pKd [8, 25]?
A: below the threshold

Q: And the pKd [9, 25]?
A: 3.59

Q: What about the pKd [10, 25] of the same binder?
A: below the threshold

Q: And the pKd [11, 25]?
A: below the threshold

Q: What about the pKd [12, 25] of the same binder?
A: below the threshold

Q: What about the pKd [13, 25] of the same binder?
A: below the threshold

Q: What about the pKd [14, 25] of the same binder?
A: below the threshold

Q: And the pKd [15, 25]?
A: 3.56

Q: What about the pKd [16, 25] of the same binder?
A: 4.24

Q: What about the pKd [17, 25] of the same binder?
A: 3.63

Q: What about the pKd [18, 25] of the same binder?
A: below the threshold

Q: What about the pKd [19, 25] of the same binder?
A: below the threshold

Q: What about the pKd [20, 25] of the same binder?
A: below the threshold

Q: What about the pKd [21, 25] of the same binder?
A: below the threshold

Q: What about the pKd [22, 25] of the same binder?
A: below the threshold

Q: And the pKd [23, 25]?
A: below the threshold

Q: And the pKd [24, 25]?
A: 4.34
